This is an account of results in publication PMC3861454, “Structures of Wnt-Antagonist ZNRF3 and Its Complex with R-Spondin 1 and Implications for Signaling” (PLoS ONE, 2013).

For assay [1], the target named is RNF43 (Homo sapiens) (UniProt Q68DV7). Briefly: ITC. The settings on record: cited from earlier work.
Assay [2] has the same target. Briefly: ITC. The settings on record: cited from earlier work. The source holds these as a separate data set.
Assay [3] has as its target T1, ZNRF3 ectodomain with C-terminal biotin acceptor peptide (C-BAP) tag, biotinylated in vivo (mouse, UniProt Q5SSZ7 53-216, biotin on the biotin acceptor peptide tag (in-vivo biotinylation by BirA)).
T1 construct: ZNRF3 ectodomain; also called Biotinylated ZNRF3; source: HEK293-E cells, co-expressed with biotin ligase (BirA); not shown: biotin acceptor peptide (BAP), C-terminal, kept
T1 sequence (looked up): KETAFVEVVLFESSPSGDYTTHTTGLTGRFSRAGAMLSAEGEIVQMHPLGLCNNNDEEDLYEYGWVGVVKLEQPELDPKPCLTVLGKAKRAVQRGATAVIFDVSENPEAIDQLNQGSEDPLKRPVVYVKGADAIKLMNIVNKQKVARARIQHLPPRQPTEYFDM
Briefly: SPR; IBIS MX96; biotinylated ZNRF3 immobilised on a G-streptavidin sensor chip at different ligand densities; analytes flowed in 25 mM HEPES pH 8.0, 150 mM NaCl, 25 °C; equilibrium dose-response, global fit to a 1:1 binding model. The settings on record: both partners purified. (In general: SPR reads the build-up and loss of mass on a sensor chip optically.)

Usually Kd stands for the equilibrium constant for the complex coming apart.

RNF43 (Homo sapiens), sequence (Q68DV7 24-197): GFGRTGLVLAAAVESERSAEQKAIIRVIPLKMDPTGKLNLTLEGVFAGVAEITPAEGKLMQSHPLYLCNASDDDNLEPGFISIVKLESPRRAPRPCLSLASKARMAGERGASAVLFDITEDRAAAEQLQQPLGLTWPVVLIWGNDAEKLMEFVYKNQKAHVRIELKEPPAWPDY

Consider RSPO1 (from UniProt Q2MKA7), for which the Kd with RNF43 (Homo sapiens) [1] was 8.5 µM; in the assay with RNF43 (Homo sapiens) [2], 0.75 µM.

B1: R-spondin 1 (RSPO1) furin-like domains Fu1 and Fu2 (domain or fragment)
chain: RISAEGSQACAKGCELCSEVNGCLKCSPKLFILLERNDIRQVGVCLPSCPPGYFDARNPDMNKCIKCKIEHCEACFSHNFCTKCKEGLYLHKGRCYPACPEGSSAANGTMECSSPA
notes: R-spondin 1, fragment consisting of the Fu1 and Fu2 domains; source: HEK 293E (EBNA) cells, purified (Ni-NTA, gel filtration); as described previously [18]
For the molecule B1, in assay [3], the Kd amounted to 1.9 µM.
